Like-named read-outs stand apart in the source and are kept apart here. Bridges are numbered along the chain shown (N, C = ends). Where no end group is shown, it is not given here.
What was measured:
[1] = molecular target: T1, plasma kallikrein (Homo sapiens, UniProt P03952); experiment: Apparent equilibrium dissociation constant (Ki*) with plasma kallikrein; type: biochemical
T1 construct: Human plasma kallikrein and Factor XIIa were purchased; purchased Enzyme Research Laboratories, Inc. (South Bend, Ind.)
Experimental: Reactions (200 μL) were carried out in microtiter plates and the rate substrate (0.7 mM S2302) was monitored at 405 nm following a 1.5 h incubation. Plots of the fractional rate versus inhibitor concentration were fit by nonlinear regression analysis to Equation 1 to determine apparent equilibrium dissociation constants (Ki *):

[2] = molecular target: T1, plasma kallikrein; experiment: Specificity assay, plasma kallikrein; type: biochemical; conditions: 100 nM inhibitor; plasma kallikrein 3.5 nM, 0.7 mM S2302; 2 h room temperature
Experimental: (§3) Aliquots (30 μL) of various inhibitors diluted to 500 nM were incubated with each protease (100 μL) in the appropriate buffer. After incubation of the substrate/inhibitor mixes at room temperature for 2 h, the appropriate substrate (20 μL) was added, and the absorbance at 405 nm was monitored. […] The FXIa assay also contained 1 mg/mL BSA. The concentration of FXIa throughout refers to the concentration of active sites. For this experiment, the concentrations of thrombin, TF-FVIIa, FXa, FXIa, FXIIa, and plasmin are approximate and are determined based upon the manufacturers' specifications.
(§4) Serine proteases (1 to 20 nM) were assayed in the presence of 100 nM inhibitor. […] The degree to which FXIa was inhibited by selected inhibitors including the consensus mutants was further investigated by measuring the Ki *.

[3] = tested on: intrinsic coagulation pathway; experiment: Activated partial thromboplastin time (APTT) clotting assay in normal human plasma; type: biochemical; conditions: 1 μM inhibitor
Experimental: (§1) FIG. 5A and FIG. 5B. […] The uninhibited clotting times were 33.6 sec and 14 sec for the APTT and PT, respectively
(§2) Clotting times for normal human plasma were performed using an MLA Electra 800 Coagulometer (Medical Laboratory Automation, Inc. Pleasantville, N.Y.) and Dade reagents (Baxter Health Care Corp., Miami Fla.). The clotting time was determined by optical assessment.
For the activated partial thromboplastin time (APTT) assays, the activation time was set at 120 sec and acquisition time at 300 to 600 sec depending on the expected outcome of the assay. Citrated normal human plasma and inhibitor were incubated together. The sample (plasma and inhibitor) and activator (Actin FS) were automatically pipetted and incubated is together for 2 min at 37° C., then CaCl2 was added and clotting time determined by means of optical assessment. The total incubation time of inhibitor with plasma was ca. 3 min before addition of activator, and 5 min before addition of CaCl2.

[4] = molecular target: T2, Factor XIa (Homo sapiens, UniProt P03951); experiment: Apparent equilibrium dissociation constant (Ki*) with FXIa; type: biochemical; conditions: at least 3 independent measurements
T2 construct: purchased Haematologic Technologies Inc. (Essex Jct., Vt.)
Experimental: as §4

[5] = tested on: extrinsic coagulation pathway; experiment: Prothrombin time (PT) clotting assay, tissue factor initiated; type: biochemical; conditions: normal human plasma, TF initiated
Experimental: as §1, §2

[6] = molecular target: T2, Factor XIa; experiment: Specificity assay, Factor XIa; type: biochemical; conditions: 100 nM inhibitor; FXIa […], 0.7 mM S2366, 1 mg/mL BSA
Experimental: as §3, §4

[7] = molecular target: T3, TF-FVIIa (tissue factor-Factor VIIa) (Homo sapiens, UniProt P08709); experiment: Specificity assay, TF-FVIIa; type: biochemical; conditions: 100 nM inhibitor; TF 77 nM-FVIIa 14 nM, 0.7 mM S2366
T3 construct: purchased Haematologic Technologies Inc. (FVIIa); TF made in house; host or cells: E. coli (TF 1-243)
Experimental: as §3, §4

[8] = molecular target: T4, Factor XIIa (Homo sapiens, UniProt P00748); experiment: Specificity assay, Factor XIIa; type: biochemical; conditions: 100 nM inhibitor; 0.7 mM S2302
T4 construct: purchased Enzyme Research Laboratories, Inc. (South Bend, Ind.)
T4 sequence (P00748 373-615 limits assumed): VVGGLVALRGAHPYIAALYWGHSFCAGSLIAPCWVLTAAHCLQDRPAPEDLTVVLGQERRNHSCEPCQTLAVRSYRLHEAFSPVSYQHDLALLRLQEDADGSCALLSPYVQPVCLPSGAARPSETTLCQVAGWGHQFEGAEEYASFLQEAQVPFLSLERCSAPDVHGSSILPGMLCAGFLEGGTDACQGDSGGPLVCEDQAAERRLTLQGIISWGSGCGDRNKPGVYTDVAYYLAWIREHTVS
T4 sequence (P00748 20-372 limits assumed): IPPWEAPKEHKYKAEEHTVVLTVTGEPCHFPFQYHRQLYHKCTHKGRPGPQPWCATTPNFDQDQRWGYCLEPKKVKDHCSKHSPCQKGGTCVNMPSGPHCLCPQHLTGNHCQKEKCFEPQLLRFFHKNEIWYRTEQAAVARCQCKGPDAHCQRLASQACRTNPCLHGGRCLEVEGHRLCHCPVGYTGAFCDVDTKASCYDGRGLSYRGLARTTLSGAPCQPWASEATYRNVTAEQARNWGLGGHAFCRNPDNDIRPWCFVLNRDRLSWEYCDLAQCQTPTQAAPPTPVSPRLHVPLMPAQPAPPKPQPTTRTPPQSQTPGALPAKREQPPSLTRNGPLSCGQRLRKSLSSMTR
Experimental: (§5) Aliquots (30 μL) of various inhibitors diluted to 500 nM were incubated with each protease (100 μL) in the appropriate buffer. After incubation of the substrate/inhibitor mixes at room temperature for 2 h, the appropriate substrate (20 μL) was added, and the absorbance at 405 nm was monitored. […] For this experiment, the concentrations of thrombin, TF-FVIIa, FXa, FXIa, FXIIa, and plasmin are approximate and are determined based upon the manufacturers' specifications.
(§6) Serine proteases (1 to 20 nM) were assayed in the presence of 100 nM inhibitor.

[9] = molecular target: T5, Factor Xa (Homo sapiens, UniProt P00742); experiment: Specificity assay, Factor Xa; type: biochemical; conditions: 100 nM inhibitor; FXa 2.5 nM, 0.7 mM Spectrozyme fXa
T5 construct: purchased Haematologic Technologies Inc. (Essex Jct., Vt.)
Experimental: as §5, §6

[10] = molecular target: T6, thrombin (Homo sapiens, UniProt P00734); experiment: Specificity assay, thrombin; type: biochemical; conditions: 100 nM inhibitor; thrombin 6.2 nM, 0.7 mM S2366
T6 construct: purchased Haematologic Technologies Inc. (Essex Jct., Vt.)
Experimental: as §5, §6

[11] = molecular target: T7, activated protein C (Homo sapiens, UniProt P04070); experiment: Specificity assay, activated protein C; type: biochemical; conditions: 100 nM inhibitor; activated protein C 7.6 nM, 0.7 mM S2366
T7 construct: purchased Haematologic Technologies Inc. (Essex Jct., Vt.)
Experimental: as §3, §4

[12] = molecular target: T8, plasmin (Homo sapiens, UniProt P00747); experiment: Specificity assay, plasmin; type: biochemical; conditions: 100 nM inhibitor; for fraction of remaining proteolytic activity, plasmin: plasmin 32 nM, 0.7 mM S2251
T8 construct: Human plasmin, S-2302, S-2251, and S-2366 were purchased from Kabi Vitrum (Sweden); purchased Kabi Vitrum (Sweden)
Experimental: as §3, §4

[13] = molecular target: plasma kallikrein; conditions: Seymour et al. 1994; read-out: Ki for plasma kallikrein (literature); cited from earlier work
[14] = 25° C., pH 7.5, 0.7 mM S2302, 1.5 h incubation, at least 3 independent measurements, read-out: Plasma Kallikrein Ki*

T8 sequence (P00747 581-810 limits assumed): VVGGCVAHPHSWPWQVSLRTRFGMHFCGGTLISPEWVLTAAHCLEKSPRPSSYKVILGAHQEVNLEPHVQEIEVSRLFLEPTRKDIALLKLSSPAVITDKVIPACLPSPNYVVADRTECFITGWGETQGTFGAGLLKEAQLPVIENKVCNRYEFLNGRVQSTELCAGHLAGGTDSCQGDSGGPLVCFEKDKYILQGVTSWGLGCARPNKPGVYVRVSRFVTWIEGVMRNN
T8 sequence (P00747 97-580 limits assumed): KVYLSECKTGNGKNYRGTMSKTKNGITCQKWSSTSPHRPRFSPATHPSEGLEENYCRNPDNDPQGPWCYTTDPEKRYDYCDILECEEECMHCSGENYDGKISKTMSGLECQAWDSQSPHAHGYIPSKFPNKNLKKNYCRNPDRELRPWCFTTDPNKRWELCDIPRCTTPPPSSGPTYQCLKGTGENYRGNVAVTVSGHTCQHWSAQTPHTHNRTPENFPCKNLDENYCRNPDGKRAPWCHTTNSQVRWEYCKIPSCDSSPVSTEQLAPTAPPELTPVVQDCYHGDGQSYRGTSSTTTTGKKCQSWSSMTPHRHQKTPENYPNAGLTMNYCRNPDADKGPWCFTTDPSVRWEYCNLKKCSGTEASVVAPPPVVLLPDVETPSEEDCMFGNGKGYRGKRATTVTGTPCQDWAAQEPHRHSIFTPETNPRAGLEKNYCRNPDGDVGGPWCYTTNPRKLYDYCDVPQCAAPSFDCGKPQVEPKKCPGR
T1 sequence (P03952 391-638 limits assumed): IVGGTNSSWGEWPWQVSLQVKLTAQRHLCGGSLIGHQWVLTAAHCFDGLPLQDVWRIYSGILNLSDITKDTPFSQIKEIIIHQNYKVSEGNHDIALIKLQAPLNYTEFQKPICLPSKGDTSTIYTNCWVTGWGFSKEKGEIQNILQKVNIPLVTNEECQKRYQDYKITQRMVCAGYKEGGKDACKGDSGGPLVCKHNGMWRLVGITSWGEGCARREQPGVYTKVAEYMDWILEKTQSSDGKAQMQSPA
T1 sequence (P03952 20-390 limits assumed): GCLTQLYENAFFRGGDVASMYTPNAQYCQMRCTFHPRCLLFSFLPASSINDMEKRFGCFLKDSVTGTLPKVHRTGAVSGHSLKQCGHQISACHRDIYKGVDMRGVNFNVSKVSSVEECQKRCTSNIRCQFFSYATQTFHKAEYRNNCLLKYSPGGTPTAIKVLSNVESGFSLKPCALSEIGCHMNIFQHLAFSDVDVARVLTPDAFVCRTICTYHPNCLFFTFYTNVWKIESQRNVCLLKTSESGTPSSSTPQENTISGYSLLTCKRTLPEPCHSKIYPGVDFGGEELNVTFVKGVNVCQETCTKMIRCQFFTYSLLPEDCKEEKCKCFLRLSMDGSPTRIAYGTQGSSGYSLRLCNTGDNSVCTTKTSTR
T2 sequence (P03951 388-625 limits assumed): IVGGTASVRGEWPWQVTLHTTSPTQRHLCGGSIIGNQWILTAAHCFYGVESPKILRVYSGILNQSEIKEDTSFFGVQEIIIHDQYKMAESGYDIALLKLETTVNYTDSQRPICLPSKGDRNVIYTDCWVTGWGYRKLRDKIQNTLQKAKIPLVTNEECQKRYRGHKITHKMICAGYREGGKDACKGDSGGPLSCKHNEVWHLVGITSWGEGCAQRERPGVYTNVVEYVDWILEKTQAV
T2 sequence (P03951 19-387 limits assumed): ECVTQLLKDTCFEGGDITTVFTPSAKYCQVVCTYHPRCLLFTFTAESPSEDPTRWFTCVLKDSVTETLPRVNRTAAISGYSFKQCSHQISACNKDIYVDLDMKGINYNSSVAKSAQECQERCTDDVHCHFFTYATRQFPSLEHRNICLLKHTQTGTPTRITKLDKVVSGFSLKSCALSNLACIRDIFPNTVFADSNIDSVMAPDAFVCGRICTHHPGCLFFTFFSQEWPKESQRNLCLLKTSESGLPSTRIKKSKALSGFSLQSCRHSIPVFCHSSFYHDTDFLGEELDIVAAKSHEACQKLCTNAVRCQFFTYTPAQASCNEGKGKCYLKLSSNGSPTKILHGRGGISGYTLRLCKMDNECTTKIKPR
T7 sequence (P04070 212-461 limits assumed): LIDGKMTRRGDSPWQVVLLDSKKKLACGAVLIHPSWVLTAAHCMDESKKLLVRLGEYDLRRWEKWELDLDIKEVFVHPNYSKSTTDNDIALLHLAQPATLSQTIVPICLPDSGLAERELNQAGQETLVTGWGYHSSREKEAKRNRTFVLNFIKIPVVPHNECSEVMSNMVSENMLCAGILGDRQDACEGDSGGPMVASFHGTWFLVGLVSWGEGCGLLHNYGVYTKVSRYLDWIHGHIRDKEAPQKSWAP
T7 sequence (P04070 43-197 limits assumed): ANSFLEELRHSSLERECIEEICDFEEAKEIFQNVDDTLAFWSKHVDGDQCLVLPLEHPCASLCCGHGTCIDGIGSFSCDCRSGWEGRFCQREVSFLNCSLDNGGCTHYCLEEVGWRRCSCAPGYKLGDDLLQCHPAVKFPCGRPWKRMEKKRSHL
T3 sequence (P08709 213-466 limits assumed): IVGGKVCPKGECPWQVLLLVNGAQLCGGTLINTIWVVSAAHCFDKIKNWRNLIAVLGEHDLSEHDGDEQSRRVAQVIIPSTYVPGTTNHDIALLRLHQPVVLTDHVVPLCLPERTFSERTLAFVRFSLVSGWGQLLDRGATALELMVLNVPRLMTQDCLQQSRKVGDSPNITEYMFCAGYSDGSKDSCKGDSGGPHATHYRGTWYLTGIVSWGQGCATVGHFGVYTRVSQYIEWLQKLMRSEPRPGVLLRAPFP
T3 sequence (P08709 61-212 limits assumed): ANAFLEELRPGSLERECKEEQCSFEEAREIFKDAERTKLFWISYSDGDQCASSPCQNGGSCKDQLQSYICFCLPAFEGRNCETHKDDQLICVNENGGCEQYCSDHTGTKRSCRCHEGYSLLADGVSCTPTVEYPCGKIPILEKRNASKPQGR
T3 sequence (P13726 33-275 partner limits assumed): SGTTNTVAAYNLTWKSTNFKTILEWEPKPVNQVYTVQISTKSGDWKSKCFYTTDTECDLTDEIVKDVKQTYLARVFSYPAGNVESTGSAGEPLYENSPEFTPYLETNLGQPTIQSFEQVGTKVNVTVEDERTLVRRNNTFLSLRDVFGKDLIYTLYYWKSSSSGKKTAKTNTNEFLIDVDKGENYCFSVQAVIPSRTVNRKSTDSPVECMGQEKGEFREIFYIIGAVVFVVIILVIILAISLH
T5 sequence (P00742 235-488 limits assumed): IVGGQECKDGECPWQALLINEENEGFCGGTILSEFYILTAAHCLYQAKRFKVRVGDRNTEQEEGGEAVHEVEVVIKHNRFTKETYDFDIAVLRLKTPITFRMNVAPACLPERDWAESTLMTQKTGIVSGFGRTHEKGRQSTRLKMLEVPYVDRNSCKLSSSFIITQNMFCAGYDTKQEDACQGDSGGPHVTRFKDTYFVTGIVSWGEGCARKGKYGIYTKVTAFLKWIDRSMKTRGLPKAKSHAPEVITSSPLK
T5 sequence (P00742 41-179 limits assumed): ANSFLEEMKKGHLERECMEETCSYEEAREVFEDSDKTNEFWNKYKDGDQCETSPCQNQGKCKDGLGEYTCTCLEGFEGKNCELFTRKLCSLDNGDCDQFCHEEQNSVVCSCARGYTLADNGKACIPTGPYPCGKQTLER

Row | Compound | Ki [1, 14] [nM] | fraction of remaining proteolytic activity, plasma kallikrein [2] | Ki [4] [nM] | fraction of remaining proteolytic activity, Factor XIa [6] | fraction of remaining proteolytic activity, TF · Factor VIIa [7] | fraction of remaining proteolytic activity, Factor XIIa [8] | fraction of remaining proteolytic activity, Factor Xa [9] | fraction of remaining proteolytic activity, thrombin [10] | fraction of remaining proteolytic activity, activated protein C [11] | fraction of remaining proteolytic activity, plasmin [12] | also measured
1 | CC(C)[C@H](N)C(=O)N[C@@H](CCCNC(=N)N)C(=O)N[C@@H](CCC(=O)O)C(=O)N[C@H](C(=O)N[C@H]1CSSC[C@@H](C(=O)NCC(=O)N[C@@H](CO)C(=O)N[C@@H](C)C(=O)O)NC(=O)[C@H](C(C)C)NC(=O)[C@H](C)NC(=O)[C@H](C)NC(=O)[C@@H]2CSSC[C@@H]3NC(=O)[C@H](CCCCN)NC(=O)CNC(=O)[C@H](CCC(=O)O)NC(=O)[C@H]([C@@H](C)O)NC(=O)[C@H](C(C)C)NC(=O)[C@H](CC(=O)O)NC(=O)[C@H](Cc4ccccc4)NC(=O)[C@H](Cc4ccc(O)cc4)NC(=O)[C@H](Cc4c[nH]c5ccccc45)NC(=O)[C@H](CCCNC(=N)N)NC(=O)[C@@H]4CCCN4C(=O)[C@H](Cc4c[nH]cn4)NC(=O)[C@H](C)NC(=O)[C@H](C)NC(=O)[C@H](CCCNC(=N)N)NC(=O)[C@H](CSSC[C@H](NC(=O)CNC(=O)CNC(=O)[C@H](Cc4ccc(O)cc4)NC(=O)[C@H](C(C)C)NC(=O)[C@H](Cc4ccccc4)NC(=O)[C@@H]4CCCN4C(=O)[C@H](C)NC3=O)C(=O)NCC(=O)NCC(=O)N[C@@H](CC(N)=O)C(=O)N[C@@H](CCCNC(=N)N)C(=O)N[C@@H](CC(N)=O)C(=O)N[C@@H](CC(N)=O)C(=O)N[C@@H](Cc3ccccc3)C(=O)N[C@@H](CC(=O)O)C(=O)N[C@@H]([C@@H](C)O)C(=O)N[C@@H](CCC(=O)O)C(=O)N[C@@H](CCC(=O)O)C(=O)N[C@@H](Cc3ccc(O)cc3)C(=O)N2)NC(=O)[C@H](Cc2c[nH]cn2)NC(=O)CNC(=O)[C@H](CCC(=O)O)NC(=O)[C@H](CCC(=O)O)NC(=O)[C@H](C)NC(=O)[C@H](CCC(N)=O)NC(=O)[C@H](CCC(=O)O)NC(=O)[C@H](CO)NC1=O)C(C)C [KALI-EV] | 0.117 ± 0.059 | – | – | – | – | – | – | – | – | – | –
2 | APPI: 58 amino acid Kunitz domain from human Alzheimer's disease amyloid β-protein precursor, residues 287-344; here Met52 replaced with Ala [reference compound] | – | 0.81 | 2.7 ± 1.4 | 0.03 | 0.60 | – | – | – | – | – | fold prolongation of clotting time, APTT [3]: 2.8 fold; prolongation of clotting time in PT assay (in words) [5]: neither KALI-DY, BPTI, nor APPI appreciably prolonged
3 | KALI-8: APPI Kunitz domain mutant, R1 LGHCRAAIPR2 FR3 (SEQ ID NO: 3) (VREVCSEQAELGHCRAAIPRWYFDVTEGKCAPFFYGGCGGNRNNFDTEEYCAAVCGSA) | – | 0.00 | – | 0.00 | 0.94 | 1.00 | 1.13 | 0.99 | 0.89 | 0.83 | –
4 | KALI-13: APPI Kunitz domain mutant, R1 SGHCRAAIPR2 FR3 (SEQ ID NO: 1) (VREVCSEQAESGHCRAAIPRWYFDVTEGKCAPFFYGGCGGNRNNFDTEEYCAAVCGSA) | – | 0.00 | – | 0.01 | 0.96 | 1.00 | 0.97 | 0.96 | 0.90 | 0.65 | –
5 | KALI-30: APPI Kunitz domain mutant, R1 EGHCRAAILR2 FR3 (SEQ ID NO: 5) (VREVCSEQAEEGHCRAAILRWYFDVTEGKCAPFFYGGCGGNRNNFDTEEYCAAVCGSA) | – | 0.00 | – | 0.00 | 1.02 | 0.92 | 0.68 | 1.00 | 0.81 | 0.53 | –
6 | KALI-46: APPI Kunitz domain mutant, R1 EGRCRASILR2 FR3 (SEQ ID NO: 33) (VREVCSEQAEEGRCRASILRWYFDVTEGKCAPFFYGGCGGNRNNFDTEEYCAAVCGSA) | – | 0.00 | – | 0.00 | 0.86 | 0.97 | 1.02 | 0.99 | 0.83 | 0.64 | –
7 | KALI-48: APPI Kunitz domain mutant, R1 TGHCRAAIPR2 FR3 (SEQ ID NO: 2) (VREVCSEQAETGHCRAAIPRWYFDVTEGKCAPFFYGGCGGNRNNFDTEEYCAAVCGSA) | – | 0.00 | – | 0.01 | 0.95 | 0.99 | 0.55 | 0.99 | 0.92 | 0.23 | inhibition of plasmin [12]: > 60%
8 | VREVCSEQAEDGHCRAAHPRWYFDVTEGKCAPFFYGGCGGNRNNFDTEEYCAAVCGSA (disulfide 5-55, 14-38, 30-51) [KALI-D] | 0.025 ± 0.022 | – | 5.7 ± 7 | – | – | – | – | – | – | – | –
9 | VREVCSEQAEDGHCRAAHPRWYFDVTEGKCAPFVYGGCGGNRNNFDTEEYCAAVCGSA (disulfide 5-55, 14-38, 30-51) [KALI-DV] | 0.043 ± 0.034 | – | 1.3 ± 1.4 | – | – | – | – | – | – | – | –
10 | VREVCSEQAEDGHCRAAHPRWYFDVTEGKCAPFYYGGCGGNRNNFDTEEYCAAVCGSA (disulfide 5-55, 14-38, 30-51) [KALI-DY] | – | – | 8.2 ± 3.5 | – | – | – | – | – | – | – | Ki ([1]; read-out: Ki* for plasma kallikrein): 0.015 ± 0.014 nM
11 | VREVCSEQAEEGHCRAAHPRWYFDVTEGKCAPFFYGGCGGNRNNFDTEEYCAAVCGSA (disulfide 5-55, 14-38, 30-51) [KALI-E] | 0.103 ± 0.054 | – | 4.5 ± 4 | – | – | – | – | – | – | – | –
12 | VREVCSEQAEEGHCRAAHPRWYFDVTEGKCAPFYYGGCGGNRNNFDTEEYCAAVCGSA (disulfide 5-55, 14-38, 30-51) [KALI-EY] | 0.98 ± 0.075 | – | 7.3 ± 5.5 | – | – | – | – | – | – | – | –
13 | VREVCSEQAEPGHCRAAHPRWYFDVTEGKCAPFFYGGCGGNRNNFDTEEYCAAVCGSA (disulfide 5-55, 14-38, 30-51) [KALI-P] | 0.2 ± 0.099 | – | 13.8 ± 17.4 | – | – | – | – | – | – | – | –
14 | VREVCSEQAEPGHCRAAHPRWYFDVTEGKCAPFVYGGCGGNRNNFDTEEYCAAVCGSA (disulfide 5-55, 14-38, 30-51) [KALI-PV] | 0.166 ± 0.07 | – | 4.1 ± 5.2 | – | – | – | – | – | – | – | –
15 | VREVCSEQAEPGHCRAAHPRWYFDVTEGKCAPFYYGGCGGNRNNFDTEEYCAAVCGSA (disulfide 5-55, 14-38, 30-51) [KALI-PY] | 0.136 ± 0.081 | – | 11.7 ± 11.9 | – | – | – | – | – | – | – | –
16 | ecotin: a 142 residue protein from E. coli | – | – | – | – | – | – | – | – | – | – | Ki [13]: ~0.16 nM

Source: patent US5780265A, “Kunitz type plasma kallikrein inhibitors” (Genentech, Inc., priority 1995, dated 1998)
